PMC5916898, “Global profiling of protein–DNA and protein–nucleosome binding affinities using quantitative mass spectrometry”

T1: VEZF1 (Homo sapiens, UniProt Q14119)
T1 sequence: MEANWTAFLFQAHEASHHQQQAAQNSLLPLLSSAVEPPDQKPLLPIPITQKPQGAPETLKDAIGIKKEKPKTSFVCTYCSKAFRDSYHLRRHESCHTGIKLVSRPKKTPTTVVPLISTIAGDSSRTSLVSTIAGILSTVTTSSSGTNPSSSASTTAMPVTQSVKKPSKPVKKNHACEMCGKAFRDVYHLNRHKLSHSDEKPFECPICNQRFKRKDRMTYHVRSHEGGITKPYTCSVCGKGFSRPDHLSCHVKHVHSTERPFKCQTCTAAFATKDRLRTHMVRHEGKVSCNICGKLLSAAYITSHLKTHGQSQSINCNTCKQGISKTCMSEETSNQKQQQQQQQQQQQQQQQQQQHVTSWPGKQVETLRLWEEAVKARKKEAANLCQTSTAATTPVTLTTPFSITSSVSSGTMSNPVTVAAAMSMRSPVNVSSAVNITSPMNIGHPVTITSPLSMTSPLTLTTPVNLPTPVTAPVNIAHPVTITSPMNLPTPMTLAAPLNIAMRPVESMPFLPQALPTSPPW

T2: ZNF148 (Homo sapiens, UniProt Q9UQR1)
T2 sequence: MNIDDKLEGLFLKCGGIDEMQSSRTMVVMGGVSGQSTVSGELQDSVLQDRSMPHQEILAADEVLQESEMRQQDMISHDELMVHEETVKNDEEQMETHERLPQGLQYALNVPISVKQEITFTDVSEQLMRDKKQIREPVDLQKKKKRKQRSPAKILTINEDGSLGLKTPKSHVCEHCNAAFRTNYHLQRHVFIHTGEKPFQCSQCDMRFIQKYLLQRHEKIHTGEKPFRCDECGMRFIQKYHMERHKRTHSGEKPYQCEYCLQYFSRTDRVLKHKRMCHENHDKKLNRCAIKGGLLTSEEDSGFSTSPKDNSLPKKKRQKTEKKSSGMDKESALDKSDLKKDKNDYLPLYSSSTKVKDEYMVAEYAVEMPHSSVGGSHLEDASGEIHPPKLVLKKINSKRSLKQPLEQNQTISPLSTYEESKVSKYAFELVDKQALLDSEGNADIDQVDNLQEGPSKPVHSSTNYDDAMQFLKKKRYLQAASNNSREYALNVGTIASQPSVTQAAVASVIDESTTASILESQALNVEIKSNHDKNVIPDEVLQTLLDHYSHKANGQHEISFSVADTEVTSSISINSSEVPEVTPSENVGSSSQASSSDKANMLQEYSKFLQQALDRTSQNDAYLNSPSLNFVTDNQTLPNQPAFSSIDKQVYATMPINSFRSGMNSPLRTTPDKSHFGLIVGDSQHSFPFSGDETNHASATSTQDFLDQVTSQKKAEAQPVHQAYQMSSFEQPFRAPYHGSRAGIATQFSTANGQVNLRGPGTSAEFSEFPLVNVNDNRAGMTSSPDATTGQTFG


Tests used:
Assay in all cases: pulldown; 150 mM NaCl, 50 mM Tris pH 8, 0.25% NP-40, 1 mM TCEP; 4 C, 2 h; 100 ug HeLa nuclear lysate
Conditions in all cases: protein: extract; label: 5' biotin (strand 1)
ZBTB7A = ZBTB7A (Homo sapiens, UniProt O95365)
ZBTB7A, sequence (O95365 whole entry): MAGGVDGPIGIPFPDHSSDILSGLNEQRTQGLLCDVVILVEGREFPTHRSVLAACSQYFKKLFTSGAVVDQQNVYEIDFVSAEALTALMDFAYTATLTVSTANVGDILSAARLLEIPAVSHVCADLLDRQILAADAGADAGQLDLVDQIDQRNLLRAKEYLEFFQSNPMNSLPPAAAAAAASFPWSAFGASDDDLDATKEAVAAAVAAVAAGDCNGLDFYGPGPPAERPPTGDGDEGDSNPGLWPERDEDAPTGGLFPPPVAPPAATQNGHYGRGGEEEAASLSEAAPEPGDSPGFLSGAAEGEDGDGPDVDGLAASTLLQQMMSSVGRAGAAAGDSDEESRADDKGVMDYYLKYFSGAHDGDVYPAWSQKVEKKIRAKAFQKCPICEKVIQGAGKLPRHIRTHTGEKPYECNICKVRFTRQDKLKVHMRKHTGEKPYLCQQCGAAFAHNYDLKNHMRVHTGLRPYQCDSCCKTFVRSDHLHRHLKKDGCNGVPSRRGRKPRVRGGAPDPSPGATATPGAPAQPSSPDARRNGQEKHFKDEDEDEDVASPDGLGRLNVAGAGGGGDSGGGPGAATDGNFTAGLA

KLF5 = KLF5 (Homo sapiens, UniProt Q13887)
KLF5, sequence (Q13887 whole entry): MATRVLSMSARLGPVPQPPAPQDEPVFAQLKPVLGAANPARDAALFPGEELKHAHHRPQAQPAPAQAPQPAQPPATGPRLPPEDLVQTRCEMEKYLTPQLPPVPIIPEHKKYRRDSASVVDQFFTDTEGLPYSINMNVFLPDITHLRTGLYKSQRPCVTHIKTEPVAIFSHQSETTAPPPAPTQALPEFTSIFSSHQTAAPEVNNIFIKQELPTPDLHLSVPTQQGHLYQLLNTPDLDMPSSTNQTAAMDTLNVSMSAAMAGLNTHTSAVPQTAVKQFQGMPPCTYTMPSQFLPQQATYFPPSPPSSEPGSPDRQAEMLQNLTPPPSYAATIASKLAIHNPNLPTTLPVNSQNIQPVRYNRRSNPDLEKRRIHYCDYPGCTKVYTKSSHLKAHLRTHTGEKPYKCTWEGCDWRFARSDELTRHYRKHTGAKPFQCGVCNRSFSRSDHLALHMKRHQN

TFAP2A = TFAP2A (Homo sapiens, UniProt P05549)
TFAP2A, sequence (P05549 whole entry): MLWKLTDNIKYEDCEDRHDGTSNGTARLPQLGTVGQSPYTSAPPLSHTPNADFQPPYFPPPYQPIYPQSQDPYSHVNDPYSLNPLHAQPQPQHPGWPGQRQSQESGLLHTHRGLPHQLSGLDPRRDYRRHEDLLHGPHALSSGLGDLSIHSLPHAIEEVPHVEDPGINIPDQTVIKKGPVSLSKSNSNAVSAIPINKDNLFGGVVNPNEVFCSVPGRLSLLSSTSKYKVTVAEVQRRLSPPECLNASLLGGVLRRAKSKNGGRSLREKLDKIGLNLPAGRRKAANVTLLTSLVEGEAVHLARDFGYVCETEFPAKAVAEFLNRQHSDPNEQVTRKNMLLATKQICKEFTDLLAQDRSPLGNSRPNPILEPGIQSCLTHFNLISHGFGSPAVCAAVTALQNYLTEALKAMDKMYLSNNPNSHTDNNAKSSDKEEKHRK

VEZF1 = target: T1, VEZF1
ZNF148 = target: T2, ZNF148
KLF4 = KLF4 (Homo sapiens, UniProt O43474)
KLF4, sequence (O43474 whole entry): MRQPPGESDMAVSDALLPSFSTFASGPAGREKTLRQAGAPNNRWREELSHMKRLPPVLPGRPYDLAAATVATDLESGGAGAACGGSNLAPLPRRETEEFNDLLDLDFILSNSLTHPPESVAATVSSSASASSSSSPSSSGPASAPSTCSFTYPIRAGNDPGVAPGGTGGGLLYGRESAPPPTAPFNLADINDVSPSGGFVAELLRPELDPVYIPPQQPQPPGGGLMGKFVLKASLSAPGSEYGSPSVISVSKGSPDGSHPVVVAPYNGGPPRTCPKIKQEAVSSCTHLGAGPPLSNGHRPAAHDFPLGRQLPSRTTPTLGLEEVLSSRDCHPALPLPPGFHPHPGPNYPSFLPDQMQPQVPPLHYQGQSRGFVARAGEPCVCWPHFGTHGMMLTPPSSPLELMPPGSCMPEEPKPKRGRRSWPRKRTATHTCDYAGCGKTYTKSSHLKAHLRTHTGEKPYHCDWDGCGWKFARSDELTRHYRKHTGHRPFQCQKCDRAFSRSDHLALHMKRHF

SP1 = SP1 (Homo sapiens, UniProt P08047)
SP1, sequence (P08047 whole entry): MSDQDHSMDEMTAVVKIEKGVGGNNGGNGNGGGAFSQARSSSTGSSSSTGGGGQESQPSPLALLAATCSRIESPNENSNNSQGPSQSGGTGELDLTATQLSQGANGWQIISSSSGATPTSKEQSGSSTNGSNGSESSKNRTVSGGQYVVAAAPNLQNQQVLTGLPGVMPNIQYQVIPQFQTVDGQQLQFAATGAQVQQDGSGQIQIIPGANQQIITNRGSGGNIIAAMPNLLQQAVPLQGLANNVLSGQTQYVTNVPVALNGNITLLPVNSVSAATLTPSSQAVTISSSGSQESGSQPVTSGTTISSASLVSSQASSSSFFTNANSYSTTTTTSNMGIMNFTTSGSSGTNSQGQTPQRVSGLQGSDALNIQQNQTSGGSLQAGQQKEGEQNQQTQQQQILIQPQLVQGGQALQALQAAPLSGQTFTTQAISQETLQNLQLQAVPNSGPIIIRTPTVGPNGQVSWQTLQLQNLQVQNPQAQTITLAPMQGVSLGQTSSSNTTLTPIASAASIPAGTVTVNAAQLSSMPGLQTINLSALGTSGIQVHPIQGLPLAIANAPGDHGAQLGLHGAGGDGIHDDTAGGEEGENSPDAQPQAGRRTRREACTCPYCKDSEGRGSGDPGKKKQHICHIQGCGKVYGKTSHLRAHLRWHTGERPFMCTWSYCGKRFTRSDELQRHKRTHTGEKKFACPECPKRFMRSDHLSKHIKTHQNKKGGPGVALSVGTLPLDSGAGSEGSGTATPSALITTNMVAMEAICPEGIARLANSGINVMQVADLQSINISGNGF

KLF16 = KLF16 (Homo sapiens, UniProt Q9BXK1)
KLF16, sequence (Q9BXK1 whole entry): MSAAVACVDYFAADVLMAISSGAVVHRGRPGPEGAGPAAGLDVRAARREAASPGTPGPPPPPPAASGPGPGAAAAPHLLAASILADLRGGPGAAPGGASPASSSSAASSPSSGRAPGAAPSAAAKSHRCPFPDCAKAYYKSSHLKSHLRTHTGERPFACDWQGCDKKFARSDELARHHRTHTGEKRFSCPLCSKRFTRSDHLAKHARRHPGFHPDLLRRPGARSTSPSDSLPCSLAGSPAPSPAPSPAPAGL

Row | Binder | apparent K (half saturation) (ZBTB7A) [nM] | apparent K (half saturation) (KLF5) [nM] | apparent K (half saturation) (TFAP2A) [nM] | apparent K (half saturation) (VEZF1) [nM] | apparent K (half saturation) (ZNF148) [nM] | apparent K (half saturation) (KLF4) [nM] | apparent K (half saturation) (SP1) [nM] | apparent K (half saturation) (KLF16) [nM]
1 | TEAD (dsDNA) DNA 1: TCGGGACCCAGGCCTGGAATGTTTCCACC DNA 2: GGTGGAAACATTCCAGGCCTGGGTCCCGA | 129 | 101 | 193 | 225 | 387 | – | – | –
2 | CTCF (dsDNA) DNA 1: TCAGAGTGGCGGCCAGCAGGGGGCGCCCTTGCCAGA DNA 2: TCTGGCAAGGGCGCCCCCTGCTGGCCGCCACTCTGA | 38.9 | 25.3 | 83.3 | 34.1 | 63.7 | 26.3 | 86.9 | 109
3 | SP/KLF wild-type (dsDNA) DNA 1: GAGAGCCCCGCCCCCTGGCT DNA 2: AGCCAGGGGGCGGGGCTCTC | 174 | 37 | 196 | 182 | 70.5 | 79.3 | 38 | 14.5
4 | TATA-box (dsDNA) DNA 1: GCGGCGCTCTATATAAGTGGGCAGTG DNA 2: CACTGCCCACTTATATAGAGCGCCGC | 258 | 219 | 328 | 227 | 383 | 159 | 284 | 151
